“And” between values parts separate entries of the source, which are not always exact repeats. Equal entries are not always repeated.
Assays:
[1] = Projected human organ absorbed doses and effective dose (OLINDA/EXM); type: in vivo, human (extrapolated from mouse); conditions: OLINDA/EXM v1.1, adult male model, 2-h voiding, from mouse data
Description: (§1) Volumes of interest (VOIs) were manually drawn on the μSPECT-CT images using PMOD v3.3 (PMOD Technologies, Switzerland) to delineate the regions with distinct SPECT time-activity pattern: heart, liver, kidney, and urinary bladder, as well as whole-body. The average organ activity per volume was obtained from the co-registered μSPECT images and the non-decay corrected time activity curves (TACs) were extracted for each target organ. In order to relate the scanner units (counts/pixel) to radioactivity concentration (kilobecquerel per cubic centimeter), a scanner calibration factor was estimated by scanning a syringe with a known concentration of Tc-99m. TACs for each organ, as well as the TACs representing the activity in the remainder of the body, were fitted by a single exponential decaying function, which was then integrated to obtain the total number of disintegrations (residence time) within these regions. In order to predict human dosimetry using animal data, interspecies extrapolation is necessary. Thus, the residence times (R) were scaled to human values according to the following formula [21]: R/gorganmouse⋅kgTBweightmouse⋅gorgan/kgTBweighthuman=Rhuman
(§2) The human organ and body weight values from the standard adult male phantom taken into account are implemented in the internal dosimetry software (OLINDA/EXM v1.1) and are assumed to be constant across individuals. The body weight and organ masses for the individual mice were obtained post-mortem. For the bladder model, the fraction leaving the body via the urinary excretion system (f) and the biological half-life of the excretion (t1/2) were estimated by fitting a first-order linear system to the sum of activity in the bladder and the activity that had been excreted (calculated as total injected activity minus total body activity): y=f1−expln2/t1/2t
Projected human absorbed doses to various organs and the effective doses (ED) were then computed using the aforementioned dosimetry software (weighting factors from International Commission on Radiological Protection 60), with the human residence times as input, using the standard adult male model and the dynamic voiding bladder model (2-h voiding interval).

[2] = Bladder model fit of urinary excretion; type: in vivo, CD1−/− nude female mice; conditions: first-order fit of bladder plus excreted activity
Description: as §2

COLO205 tumors [3] = assay: In vivo tumor uptake by μSPECT-CT in COLO205 tumor-bearing mice; parameters: species or system nude mice; conditions: for mean tumor uptake: μSPECT 4 h p.i., 37 MBq i.v., mean ± SEM, n = 6 tumors
Method: (§3) Irinotecan was administered by intra-peritoneal (i.p.) injection (80 mg/kg) three times in 1 week every other day (n = 3).

[4] = Human residence time estimates scaled from mouse μSPECT time-activity curves; type: in vivo, human (extrapolated from mouse); conditions: scaled from mouse μSPECT TACs, n = 3 non-purified, n = 6 purified
Description: as §1, §2

COLO205 tumors [5] = assay: Ex vivo tumor uptake by γ-counting in COLO205 tumor-bearing mice; parameters: species or system nude mice; conditions: mean ± SEM
Method: as §3

[6] = In vivo plasma metabolite analysis by radio-HPLC; parameters: species or system CD1−/− nude mice; conditions: mouse plasma 4 and 24 h p.i., 37 MBq purified tracer i.v., acetonitrile deproteination, radio-RP-HPLC with γ-counted fractions; n = 3 per time point
Method: In vivo metabolite analysis
Four and 24 h p.i. (n=3 for each […]
time point) mixed blood was drawn by cardiac puncture, and the mice were euthanized by cervical dislocation. The blood was collected in EDTA-coated tubes and the plasma fraction was obtained by centrifugation (4000 g for 7 min). The plasma (200 µl) was mixed with an equal amount of cold acetonitrile to enable sample deproteination and counted for radioactivity using an automatic γ-counter. After vortexing and centrifuging for 4 min at 4000 g, the supernatant was separated from the pellet and both fractions were γ-counted to calculate the amount of radioactivity extracted in acetonitrile. To study radiometabolite formation, 100 µl of the supernatant were analyzed by RP-HPLC using the method described before. Eluate fractions of 0.5 min were collected and counted for radioactivity in the γ-counter.
Adult normal CD1-/- nude mice were used to examine the metabolic stability of […]
According to the radio-HPLC analysis of the plasma samples, the majority of the injected radiotracer remains unchanged after 4 and 24 h p.i. (Figs. 1b and c, respectively).
One minor polar impurity was detected eluting at 3 min. As it was also visible in the reference […]
Radiometabolites eluting with a longer retention time (18.5 – 30 min) could also be detected.

For CC(C)[C@@H]1NC(=O)[C@H](Cc2ccccc2)NC(=O)[C@@H]2NC(=O)[C@H](Cc3ccccc3)NC(=O)[C@@H]3CCCN3C(=O)CNC(=O)[C@H](Cc3ccccc3)NC(=O)[C@@H]3CNCCCC[C@@H](C(=O)O)NC(=O)[C@@H]4NC(=O)[C@H](CC(N)=O)NC(=O)CNC(=O)[C@H]([C@@H](O)C(=O)O)NC(=O)[C@H](CSC[C@@H](NC(=O)[C@H](CCC(N)=O)NC(=O)[C@H](CCCCNC(=O)c5ccc(NN)nc5)NC(=O)[C@@H](N)CS[C@H]4C)C(=O)N[C@@H](CS[C@H]2C)C(=O)N3)NC1=O [purified [^99mTc]duramycin] [metal not drawn], the “Mean human absorbed dose, total body” value [1] was 1.62 × 10^−3 mGy/MBq, the “Mean human organ absorbed dose, LLI wall” value [1] was 2.97 × 10^−3 mGy/MBq and the “Mean human organ absorbed dose, ULI wall” value [1] was 2.03 × 10^−3 mGy/MBq. The “Mean human organ absorbed dose, adrenals” value [1] was 1.74 × 10^−3 mGy/MBq, the “Mean human organ absorbed dose, brain” value [1] was 1.14 × 10^−3 mGy/MBq and the “Mean human organ absorbed dose, breasts” value [1] was 9.59 × 10^−4 mGy/MBq. The “Mean human organ absorbed dose, gallbladder wall” value [1] was 1.84 × 10^−3 mGy/MBq, the “Mean human organ absorbed dose, heart wall” value [1] was 1.91 × 10^−3 mGy/MBq and the “Mean human organ absorbed dose, kidneys” value [1] was 3.63 × 10^−3 mGy/MBq. For the same compound, the “Mean human organ absorbed dose, liver” value [1] was 1.64 × 10^−3 mGy/MBq, the “Mean human organ absorbed dose, lungs” value [1] was 1.36 × 10^−3 mGy/MBq and the “Mean human organ absorbed dose, muscle” value [1] was 1.55 × 10^−3 mGy/MBq. For the same compound, the “Mean human organ absorbed dose, osteogenic cells” value [1] was 3.92 × 10^−3 mGy/MBq, the “Mean human organ absorbed dose, ovaries” value [1] was 2.96 × 10^−3 mGy/MBq and the “Mean human organ absorbed dose, pancreas” value [1] was 1.82 × 10^−3 mGy/MBq. For the same compound, the “Mean human organ absorbed dose, red marrow” value [1] was 1.48 × 10^−3 mGy/MBq, the “Mean human organ absorbed dose, skin” value [1] was 9.56 × 10^−4 mGy/MBq and the “Mean human organ absorbed dose, small intestine” value [1] was 2.22 × 10^−3 mGy/MBq. The “Mean human organ absorbed dose, spleen” value [1] was 1.59 × 10^−3 mGy/MBq, the “Mean human organ absorbed dose, stomach wall” value [1] was 1.59 × 10^−3 mGy/MBq and the “Mean human organ absorbed dose, testes” value [1] was 2.07 × 10^−3 mGy/MBq. The “Mean human organ absorbed dose, thymus” value [1] was 1.39 × 10^−3 mGy/MBq, the “Mean human organ absorbed dose, thyroid” value [1] was 1.38 × 10^−3 mGy/MBq and the “Mean human organ absorbed dose, urinary bladder wall” value [1] was 2.70 × 10^−2 ± 3.05 × 10^−3 mGy/MBq and 2.70 × 10 ^−2 mGy/MBq. The “Mean human organ absorbed dose, uterus” value [1] was 4.57 × 10^−3 ± 3.42 × 10^−4 mGy/MBq and 4.57 × 10 ^−3 mGy/MBq, the “f, mean fraction leaving the body via the urinary excretion system” value [2] was 0.697 and the “t 1/2, mean biological half-life of the excretion” value [2] was 2.151 h. The “tumor-to-blood uptake ratio, irinotecan-treated over vehicle-treated mice” value (COLO205 tumors [3]; 4 h p.i.) was 6 fold, the “tumor-to-muscle uptake ratio, irinotecan-treated over vehicle-treated mice” value (COLO205 tumors [3]; 4 h p.i.) was 2 fold and the mean tumor uptake (COLO205 tumors [3]; irinotecan-treated group, 24 h after last dose) was 148.50 ± 25.42 %I.D./g/kg. For the same compound, the mean tumor uptake (COLO205 tumors [3]; vehicle-treated group) was 40.58 ± 2.81 %I.D./g/kg, the “Mean human residence time, heart contents” value [4] was 0.027 h and the “Mean human residence time, kidneys” value [4] was 0.0549 h. The “Mean human residence time, liver” value [4] was 0.075 h, the “Mean human residence time, remaining body” value [4] was 2.54 h and the “Mean human residence time, urinary bladder contents” value [4] was 6.43 × 10 ^−1 h. For the same compound, the “tumor uptake by γ-counting” value (COLO205 tumors [5]; control (vehicle) tumors) was 0.74 ± 0.04 %I.D./g, the “tumor uptake by γ-counting” value (COLO205 tumors [5]; irinotecan-treated tumors) was 1.65 ± 0.13 %I.D./g and the “in vivo plasma (metabolic) stability” value [6] was “unchanged”.

Reference: article PMC4641155 (Molecular Imaging and Biology, 2015)
